{
  "source": "paper PMC5353646",
  "about": "“Allosteric modulation of peroxisomal membrane protein recognition by farnesylation of the peroxisomal import receptor PEX19” (Nature Communications, 2017)",
  "molecules": {"B1": {"name": "PEX19 I195K: full-length PEX19 variant I195K (protein, UniProt P40855 1-299, looked up, variant I195K)", "chain": "MAAAEEGCSVGAEADRELEELLESALDDFDKAKPSPAPPSTTTAPDASGPQKRSPGDTAKDALFASQEKFFQELFDSELASQATAEFEKAMKELAEEEPHLVEQFQKLSEAAGRVGSDMTSQQEFTSCLKETLSGLAKNATDLQNSSMSEEELTKAMEGLGMDEGDGEGNILPIMQSIMQNLLSKDVLYPSLKEKTEKYPEWLQSHRESLPPEQFEKYQEQHSVMCKICEQFEAETPTDSETTQKARFEMVLDLMQQLQDLGHPPKELAGEMPPGLNFDLDALNLSGPPGASGEQCLIM", "modifications": "full-length"}, "B2": {"name": "PEX19 P273F/P274F: full-length PEX19 with two lid prolines replaced by phenylalanine (protein, UniProt P40855 1-299, looked up, variant P273F P274F)", "chain": "B1 chain with K195I, P273F, P274F", "modifications": "full-length", "notes": "full-length PEX19 with two lid prolines replaced by phenylalanine"}, "B3": {"name": "PEX19 CTD: human PEX19 C-terminal domain (residues 161–299) (protein)", "chain": "GMDEGDGEGNILPIMQSIMQNLLSKDVLYPSLKEITEKYPEWLQSHRESLPPEQFEKYQEQHSVMCKICEQFEAETPTDSETTQKARFEMVLDLMQQLQDLGHPPKELAGEMPPGLNFDLDALNLSGPPGASGEQCLIM", "modifications": "left off: His6, end not stated, cleaved"}, "B4": {"name": "PEX19 CTD farnesylated: human PEX19 CTD (residues 161–299) farnesylated in vitro (protein)", "chain": "B3 chain", "modifications": "farnesyl group on Cys296 (CaaX box); left off: His6, end not stated, cleaved", "notes": "human PEX19 CTD (residues 161–299) farnesylated in vitro"}, "B5": {"name": "I195K: PEX19 CTD variant I195K (helix α2) (protein)", "chain": "B3 chain with I35K", "modifications": "farnesyl group on Cys296 (CaaX box); left off: His6, end not stated, cleaved"}, "B6": {"name": "M179R: PEX19 CTD variant M179R (helix α1) (protein)", "chain": "B3 chain with M19R", "modifications": "left off: His6, end not stated, cleaved"}, "B7": {"name": "M255R farn: farnesylated PEX19 CTD variant M255R (protein, UniProt P40855 161-299, looked up, variant M255R)", "chain": "B3 chain with M95R", "modifications": "C-terminal domain farnesylated"}, "B8": {"name": "M179R farn: farnesylated PEX19 CTD variant M179R (protein, UniProt P40855 161-299, looked up, variant M179R)", "chain": "B3 chain with M19R", "modifications": "C-terminal domain farnesylated"}, "B9": {"name": "I195K farn: farnesylated PEX19 CTD variant I195K (protein, UniProt P40855 161-299, looked up, variant I195K)", "chain": "B3 chain with I35K", "modifications": "C-terminal domain farnesylated"}},
  "key": {"farnesylated PEX19 CTD": {"target": "T1, farnesylated PEX19 CTD (Homo sapiens, UniProt P40855)", "T1 construct": "we studied the human PEX19 CTD (residues 161–299) that includes the native C-terminus; hexahistidine (TEV-cleavable) (cleaved yes); made in house; host or cells: Escherichia coli BL21 (DE3); farnesylated in vitro with recombinant S. cerevisiae farnesyl transferase", "T1 sequence (P40855 161-299)": "B3 chain", "assay": "NMR titration of farnesylated PEX19 CTD with PMP peptides", "format": "binding", "conditions": "1H,15N HSQC, 298 K, ALDP at 5 and 10 molar ratio with 100 μM PEX19 CTD, PEX13 at 1:1.5 and 1:0.5 with 50 μM"}, "[1]": {"test_system": "PEX19-deficient human fibroblasts (ΔPEX19 T)", "assay": "Functional complementation of PEX19-deficient fibroblasts (peroxisomal protein import)", "format": "cell-based", "conditions": "full-length PEX19 variants, 72 h after transfection", "text": "A bicistronic expression plasmid coding for eGFP-PTS1 and non-tagged PEX14 (pMF1220)[43] was kindly provided by Marc Fransen (Leuven, Belgium). pIRES2-HsPEX19-eGFP-PTS1 was constructed by replacing the open reading frame of PEX14 (BglII/SalI) with a DNA-cassette encoding the full-length open reading frame of human PEX19 as derived from BamHI/SalI digestion of pAH05 (ref. [44]). Single point mutations were introduced into the PEX19 sequence by Quickchange XL Site-directed Mutagenesis kit (Stratagene) using primer pairs (Supplementary Table 1). The bicistronic expression vectors coding for PEX19 variants and eGFP-PTS1 were transfected into the human cell-line ΔPEX19 T which was derived from PEX19-deficient Zellweger patient fibroblasts. ΔPEX19 T cells, characterized by a defect in peroxisome biogenesis were routinely authenticated by functional complementation assays as described below and checked for mycoplasma contamination using Venor GeM Advance Mycoplasm Detection Kit (Minerva Biolabs). The efficiency of transfection according to the Amaxa Cell Line Nucleofector Kit R protocol (Lonza Cologne AG) was always around 90%. After 72 h of transfection, cells were subjected to fluorescence and immunofluorescence microscopy using polyclonal antiserum against human PEX14 (ref. [45]) (1:400 diluted) or monoclonal antibodies against human PEX19 (BD Biosciences, MA5-17266 Thermo Scientific; 1:400 diluted). Statistical analysis was carried out from three independent transfections of each pIRES-PEX19-eGFP-PTS1 expression plasmid. Based on the appearance of eGFP-PTS1 fluorescence pattern, about 100 cells of each experiment were visually categorized into three classes, (i) full complementation of peroxisomal import as visualized by punctuate staining pattern, (ii) partial complementation as indicated by diffuse cytosolic staining with few dots, (iii) no complementation resulting in only cytosolic staining. All micrographs were recorded on a Zeiss Axioplan 2 microscope with a Zeiss Plan-Apochromat × 63/1.4 oil objective and an Axiocam MR digital camera, and were processed with AxioVision 4.6 software (Zeiss, Jena, Germany). The steady-state level of PEX19 expression was assessed by immunoblot analysis, using monoclonal mouse antibodies against HsPEX19 (BD Biosciences, MA5-17266; 1:1,000 diluted) (Supplementary Fig. 9)."}, "[2]": {"assay": "Hydrophobic interaction chromatography", "format": "physicochemical", "conditions": "Butyl Sepharose FF, linear decreasing (NH4)2SO4 650–0 mM, 20 ml, 280 nm; for elution volume after start of the gradient: 20 mM potassium phosphate, pH 6.5, 50 mM NaCl, 500 μg protein; for ΔV, difference in elution volume between farnesylated and non-farnesylated protein: pH 6.5", "procedure": "Purified PEX19 CTD and variants were adjusted to a buffer containing 650 mM (NH4)2SO4 and 500 μg protein was subjected to equilibrated Butyl Sepharose FF column (20 mM potassium phosphate, pH 6.5, 50 mM NaCl and 650 mM (NH4)2SO4). After washing, bound protein was eluted with linear decreasing (NH4)2SO4 concentrations (650–0 mM (NH4)2SO4, 20 ml). Eluted proteins were detected using 280 nm absorption. The binding strength is indicated by the elution volume and correlates with protein hydrophobicity."}, "[3]": {"assay": "15N NMR relaxation, tumbling correlation time", "format": "physicochemical", "conditions": "for tumbling correlation time τc: 15N R2/R1 ratio, 750 MHz, 298 K, PEX19 CTD residues 161–299; for oligomeric state in solution: from τc, 15N NMR relaxation", "text": "NMR spectra were acquired at 298 K on a Bruker Avance III 600-MHz spectrometer with a TCI cryo-probe head, an Avance III 750-MHz spectrometer with a TXI probe head, or an Avance 900 instrument with a TXI cryo-probe head. Spectra were processed using NMRPipe[31] and analysed with Sparky[32]. Backbone assignment was done semi-automatically with MARS[33]. Backbone and side chain assignments were obtained from HNCA, HNCACB, CBCA(CO)NH, H(C)CH-TOCSY and (H)CCH-TOCSY spectra. ^13C- and ^15N- edited NOESY spectra with a mixing time of 70 ms were recorded to derive distance restraints. For NOEs between PEX19 and the farnesyl group, isotope-edited and filtered 3D NOESY spectra (70 and 100 ms mixing times) were acquired using specific isotope-labelled samples. ^15N R1, R2 relaxation rates and {^1H}-^15N heteronuclear NOEs were recorded at an Avance III 750 MHz spectrometer. Local correlation times were derived from the ^15N R2/R1 ratio[35]. For determination of solvent paramagnetic relaxation enhancement rates, gadolinium diethylene-triamine-penta-acetic-acid bismethylamide (Gd(DTPA-BMA)) was titrated to the protein samples[36][37][38]. Saturation recovery ^1H,^15N HSQC experiments with recovery times from 0.01 to 3 s were recorded at concentrations of 0, 1, 2, 3, 5, 7 and 10 mM Gd(DTPA-BMA). Peak intensities were fitted to an exponential recovery function according to equation I(τ)=I0−Aexp(−R1τ), where τ is the recovery delay, I(τ) is the peak intensity measured for the recovery delay τ, I0 is the maximum peak intensity, R1 is the longitudinal proton relaxation rate and A is the signal amplitude. To obtain the sPRE value, the proton R1 rates were collected for all measured concentrations of Gd(DTPA-BMA) cpara and a linear regression for the equation R1 (cpara)=msPRE cpara+ [drawing 1] was performed, where R1 (cpara) is the proton R1 measured at the concentration cpara of the paramagnetic compound, the slope msPRE corresponds to the sPRE and [drawing 2] is the fitted proton R1 in the absence of the paramagnetic compound[36]. For NMR titrations an ALDP peptide (sequence: AAKAGMNRVFLQRLL, residues 62–76 of human ALDP) was dissolved to a concentration of 5 mM in NMR buffer and added to ^15N-labelled PEX19 CTD with and without farnesylation in the same buffer up to a protein-peptide molar ratio of 1:10."}},
  "note": "Residue numbers refer to the chain shown, from its start. In names and notes the source's numbering stands. Entries after “also recorded” stand apart in the source; their conditions may differ.",
  "data": [
    {"molecule": "HFTKVFSAFALVRTIR [PEX13 peptide, peptide derived from the PMP PEX13]", "values": [
      {"measurement": "NMR chemical shift perturbations / line broadening of farnesylated PEX19 CTD", "setting": "farnesylated PEX19 CTD", "result": "severe line broadening"},
      {"measurement": "NMR chemical shift perturbations / line broadening of farnesylated PEX19 CTD", "setting": "farnesylated PEX19 CTD; listed as PEX13", "result": "even stronger NMR chemical shift perturbation changes to helix α1, and significant line broadening in the lid region"}
    ]},
    {"molecule": "B1", "values": [
      {"measurement": "functional complementation (in words)", "setting": "[1]", "result": "impaired although less strongly"},
      {"measurement": "cells showing restored peroxisomal protein transport (functional complementation)", "setting": "[1]; at least 100 cells in three independent transfections, series of Fig. 3c", "result": 23, "unit": "%"}
    ]},
    {"molecule": "B2", "values": [
      {"measurement": "cells displaying import-competent peroxisomes (complementation rate)", "setting": "[1]; 100 cells each of three independent transfections, series of Fig. 5d", "result": 20, "unit": "%"}
    ]},
    {"molecule": "B3", "values": [
      {"measurement": "elution volume after start of the gradient", "setting": "[2]", "result": 9.66, "unit": "mL"},
      {"measurement": "ΔV, difference in elution volume between farnesylated and non-farnesylated protein", "setting": "[2]", "result": 5.08, "unit": "mL"},
      {"measurement": "tumbling correlation time τc", "setting": "[3]", "result": 11.4, "unit": "ns"},
      {"measurement": "oligomeric state in solution", "setting": "[3]", "result": "monomeric in solution"}
    ]},
    {"molecule": "B4", "values": [
      {"measurement": "elution volume after start of the gradient", "setting": "[2]", "result": 14.74, "unit": "mL"},
      {"measurement": "tumbling correlation time τc", "setting": "[3]", "result": 10.5, "unit": "ns"},
      {"measurement": "oligomeric state in solution", "setting": "[3]", "result": "monomeric in solution"}
    ]},
    {"molecule": "B5", "values": [
      {"measurement": "elution volume after start of the gradient", "setting": "[2]", "result": 8.40, "unit": "mL"},
      {"measurement": "ΔV, difference in elution volume between farnesylated and non-farnesylated protein", "setting": "[2]", "result": 8.01, "unit": "mL"}
    ]},
    {"molecule": "B6", "values": [
      {"measurement": "functional complementation (in words)", "setting": "[1]", "result": "not capable of rescuing the ΔPEX19 phenotype; also recorded: cannot restore peroxisomal biogenesis"},
      {"measurement": "elution volume after start of the gradient", "setting": "[2]", "result": 4.60, "unit": "mL"}
    ]},
    {"molecule": "B7", "values": [
      {"measurement": "elution volume after start of the gradient", "setting": "[2]", "result": 17.9, "unit": "mL"}
    ]},
    {"molecule": "B8", "values": [
      {"measurement": "elution volume after start of the gradient", "setting": "[2]", "result": 11.26, "unit": "mL"}
    ]},
    {"molecule": "B9", "values": [
      {"measurement": "elution volume after start of the gradient", "setting": "[2]", "result": 16.41, "unit": "mL"}
    ]}
  ]
}
